Experimental data: article PMC6956826

Biological target: SNID2 peptide of the CD3 zeta chain
Test: ITC

Substance | dH | stoichiometry N | Kd
SIVmac239 Nef core domain harboring the C-terminal region (domain or fragment) | -14.2 kcal/mol | 1.05 | –
HIV-2 consensus Nef | -12.3 kcal/mol | 1.08 | 12 µM
